Patent US20250352659A1, “SELF-STABILIZING LINKER CONJUGATES” (priority 2023, published 2025)
Read-outs that look alike come from different tables or passages of the source.

Columns and labels:
[1] = Conjugator-antibody conjugate maleimide hydrolysis (ring opening) kinetics by reduced LCMS; format: physicochemical
Experimental: After the conjugation step, the ADC (or conjugator-antibody conjugate) was subjected to buffer exchange into ring opening buffer (pH 6.5˜9.0, PBS, borate or tris buffer) and the solution was left at 22 or 37° C. for 1˜48 h. The maleimide ring opening process was monitored via reduced LCMS. Once the conjugated maleimide hydrolysis was completed, the resulting ADCs were buffer exchanged into basic tris pH 8.0-8.5 buffer or acidic histidine-acetate pH 5.0-6.5 buffer via dialysis.
LCMS method to monitor and determine maleimide hydrolysis. LC-MS analysis was carried out under the following measurement conditions: • LC-MS system: Vanquish Flex UHPLC and Orbitrap Exploris 240 Mass Spectrometer • Column: MAbPac™ RP, 2.1*50 mm, 4 μm, 1,500 Å, Thermo Scientific™ • Column temperature: 80° C. • Mobile phase A: 0.1% formic acid (FA) aqueous solution • Mobile phase B: Acetonitrile solution containing 0.1% formic acid (FA) • Gradient program 1: 25% B-25% B (0 min-2 min), 25% B-50% B (2 min-18 min), 50% B-90% B (18 min-18.1 min), 90% B-90% B (18.1 min-20 min), 90% B-25% B (20 min-20.1 min), 25% B-25% B (20.1 min-25 min) • Gradient program 2 • Injected sample amount: 2 μg • MS parameters: Intact and denaturing MS data were acquired in HMR mode at setting of R=15k and deconvolved using the ReSpect™ algorithm and Sliding Window integration in Thermo Scientific™ BioPharma Finder™ 4.0 software.
Results for ring opening times measured by the LCMS method described above for monitoring ring hydrolysis are presented in Table 3 as RO T1/2 (h) (i.e., the time, in hours, for 50% of the maleimide rings to open).
Conjugator-antibody conjugate maleimide hydrolysis (ring opening) kinetics are presented in FIGS. 1A-1L, Table 3 (for pH 7.0 reaction conditions, hydrolysis T1/2), and Table 5. The data in Table 5 was generated by the LCMS method described above and includes the time, in hours, for the maleimide ring to open in more than 95% of the conjugators, after antibody conjugation (“RO Completed Time (>95%) (h)”). The results for conjugator-antibody conjugate 3-1 indicate that after 24 hours, about 0% of maleimide rings were open; the results for conjugator-antibody conjugate 3-3 indicate that after 24 hours, about 28% of maleimide rings were open.

[2] = Conjugator-antibody conjugate stability in formulation buffer (pH 5.5 20 mM histidine buffer); format: physicochemical; conditions: pH 5.5, 22 °C
Experimental: After the conjugation and hydrolysis steps described above (see “DAR8 antibody drug conjugate/conjugator-antibody conjugate preparation”), conjugator-antibody conjugates were incubated in formulation buffer (pH 5.5 20 mM histidine buffer) or glutathione (GSH) buffer (pH 7.4 or 8.0), […] Hydrolysis status was monitored via reduced LCMS. Results are presented in Table 6, Table 7, and FIGS. 2A-23B.

[3] = Conjugator-antibody conjugate stability in pH 7.4 and 8.0 buffer with and without GSH; format: physicochemical; conditions: incubation 20 h;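 also: conjugate hydrolysis tracked by LC-MS analysis of reduced samples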
[4] = Conjugator-antibody conjugate maleimide hydrolysis (ring opening) kinetics by reduced LCMS; format: physicochemical; conditions: pH 7, time point 96 h
B7H3 [5] = molecular target: T1, B7H3 (human, UniProt Q5ZPR3 29-534); experiment: cell-based or functional assay
T1 sequence (looked up): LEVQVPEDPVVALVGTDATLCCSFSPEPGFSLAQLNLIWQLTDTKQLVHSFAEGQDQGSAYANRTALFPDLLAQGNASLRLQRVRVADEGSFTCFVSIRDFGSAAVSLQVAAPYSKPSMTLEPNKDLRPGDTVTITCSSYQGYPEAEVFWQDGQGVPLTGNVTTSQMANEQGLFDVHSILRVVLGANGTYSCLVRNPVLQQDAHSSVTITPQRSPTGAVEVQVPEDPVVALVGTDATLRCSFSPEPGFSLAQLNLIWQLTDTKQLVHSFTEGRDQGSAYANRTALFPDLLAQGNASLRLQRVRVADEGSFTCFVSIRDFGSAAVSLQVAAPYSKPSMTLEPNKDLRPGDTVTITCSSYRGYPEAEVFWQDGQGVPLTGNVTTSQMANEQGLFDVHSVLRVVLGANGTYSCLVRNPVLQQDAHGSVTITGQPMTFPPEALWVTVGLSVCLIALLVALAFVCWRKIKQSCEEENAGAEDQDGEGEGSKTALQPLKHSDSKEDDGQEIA

B7H3 [6] = molecular target: T1, B7H3; experiment: cell-based or functional assay; remark: listed apart in the source

CN(C)C(=O)CCNC(=O)OCC(CCN)N1C(=O)C=CC1=O (centres unmarked) [3-11]
half-life ([1]; buffer, pH 7.0, time for 50% of the maleimide rings to open, read-out: RO T1/2 (converted)): 14 h | MS DAR ([1]; pH 7, time point 1 h): 8 | RO (%) HC ([1]; pH 7, time point 1 h): 3.41% | RO (%) LC ([1]; pH 7, time point 1 h): 1.97% | RO (%) Total ([1]; pH 7, time point 1 h): 3.05% | MS DAR ([1]; pH 7, time point 3 h): 8 | RO (%) HC ([1]; pH 7, time point 3 h): 12.32% | RO (%) LC ([1]; pH 7, time point 3 h): 6.37% | RO (%) Total ([1]; pH 7, time point 3 h): 10.83% | MS DAR ([1]; pH 7, time point 5 h): 8 | RO (%) HC ([1]; pH 7, time point 5 h): 31.72% | RO (%) LC ([1]; pH 7, time point 5 h): 10.15% | RO (%) Total ([1]; pH 7, time point 5 h): 26.33% | MS DAR ([1]; pH 7, time point 7 h): 8 | RO (%) HC ([1]; pH 7, time point 7 h): 33.03% | RO (%) LC ([1]; pH 7, time point 7 h): 14.6% | RO (%) Total ([1]; pH 7, time point 7 h): 28.42% | MS DAR ([1]; pH 7, time point 24 h): 8 | RO (%) HC ([1]; pH 7, time point 24 h): 84.46% | RO (%) LC ([1]; pH 7, time point 24 h): 68.64% | RO (%) Total ([1]; pH 7, time point 24 h): 80.51% | MS DAR ([1]; pH 7, time point 96 h): 8 | RO (%) HC ([1]; pH 7, time point 96 h): 96.94% | RO (%) LC ([1]; pH 7, time point 96 h): 89.26% | RO Completed Time (>95%) ([1]; pH 7, time for the maleimide ring to open in more than 95% of the conjugators): 96 h | MS DAR-T = 168 h ([2]; incubation 168 h): 8.00 | Maleimide ring opening ratio (%) at T = 168 h ([2]; incubation 168 h): 96.99% | MS DAR-T = 0 h [2]: 8.02 | MS DAR ([3]; pH 7.4, 22 °C): 8.00 | MS DAR ([3]; pH 7.4, 37 °C): 8.00 | MS DAR ([3]; pH 8.0, 22 °C): 8.00 | RO (%) Total [4]: 95.02%

B1: ADC4-B (antibody, human IgG1, kappa, V domains shown)
VH: QVQLVQSGAEVKKPGSSVKVSCKASGYTFTNYVMHWVRQAPGQGLEWMGYINPYNDDVKYNEKFKGRVTITADESTSTAYMELSSLRSEDTAVYYCARWGYYGSPLYYFDYWGQGTLVTVSS
VL: EIVLTQSPATLSLSPGERATLSCRASSRLIYMHWYQQKPGQAPRPLIYATSNLASGIPARFSGSGSGTDFTLTISSLEPEDFAVYYCQQWNSNPPTFGQGTKVEIKR
modifications: conjugator-linker-payload on cysteine thiols after TCEP reduction (DAR8); residues not numbered; structure given only as a drawing
EC50 (nM), ADC direct killing, Capan-1 (Low), 3D (B7H3 [5]): 1.1 nM | EC50 (nM), ADC direct killing, NCI-H1650 (High), 3D (B7H3 [5]): 4.5 nM | Emax (%), ADC direct killing, Capan-1 (Low), 3D (B7H3 [5]): 74.3% | Emax (%), ADC direct killing, NCI-H1650 (High), 3D (B7H3 [5]): 66.5% | EC50 (nM), ADC direct killing, Capan-1 (Low), 3D (B7H3 [6]): 0.5 nM | EC50 (nM), ADC direct killing, NCI-H1650 (High), 3D (B7H3 [6]): 3.9 nM | Emax (%), ADC direct killing, Capan-1 (Low), 3D (B7H3 [6]): 84.9% | Emax (%), ADC direct killing, NCI-H1650 (High), 3D (B7H3 [6]): 75.3%

B2: ADC4-9 (antibody, human IgG1, kappa, V domains shown)
VH: B1 VH
VL: B1 VL
modifications: conjugator-linker-payload on cysteine thiols after TCEP reduction (DAR8), maleimide hydrolysed; residues not numbered; structure given only as a drawing
EC50 (nM), ADC direct killing, Capan-1 (Low), 3D (B7H3 [6]): 0.8 nM | EC50 (nM), ADC direct killing, NCI-H1650 (High), 3D (B7H3 [6]): 2.8 nM | Emax (%), ADC direct killing, Capan-1 (Low), 3D (B7H3 [6]): 78.8% | Emax (%), ADC direct killing, NCI-H1650 (High), 3D (B7H3 [6]): 81.4%

B3: ADC4-10 (antibody, human IgG1, kappa, V domains shown)
VH: B1 VH
VL: B1 VL
modifications: conjugator-linker-payload on cysteine thiols after TCEP reduction (DAR8), maleimide hydrolysed; residues not numbered; structure given only as a drawing
EC50 (nM), ADC direct killing, Capan-1 (Low), 3D (B7H3 [6]): 0.6 nM | EC50 (nM), ADC direct killing, NCI-H1650 (High), 3D (B7H3 [6]): 1.7 nM | Emax (%), ADC direct killing, Capan-1 (Low), 3D (B7H3 [6]): 68.4% | Emax (%), ADC direct killing, NCI-H1650 (High), 3D (B7H3 [6]): 80%

B4: ADC4-11 (antibody, human IgG1, kappa, V domains shown)
VH: B1 VH
VL: B1 VL
modifications: conjugator-linker-payload on cysteine thiols after TCEP reduction (DAR8), maleimide hydrolysed; residues not numbered; structure given only as a drawing
EC50 (nM), ADC direct killing, Capan-1 (Low), 3D (B7H3 [5]): 1 nM | EC50 (nM), ADC direct killing, NCI-H1650 (High), 3D (B7H3 [5]): 2.1 nM | Emax (%), ADC direct killing, Capan-1 (Low), 3D (B7H3 [5]): 62.4% | Emax (%), ADC direct killing, NCI-H1650 (High), 3D (B7H3 [5]): 85.6%

B5: ADC4-12 (antibody, human IgG1, kappa, V domains shown)
VH: B1 VH
VL: B1 VL
modifications: conjugator-linker-payload on cysteine thiols after TCEP reduction (DAR8), maleimide hydrolysed; residues not numbered; structure given only as a drawing
EC50 (nM), ADC direct killing, NCI-H1650 (High), 3D (B7H3 [5]): 2.3 nM | Emax (%), ADC direct killing, Capan-1 (Low), 3D (B7H3 [5]): 61.9% | Emax (%), ADC direct killing, NCI-H1650 (High), 3D (B7H3 [5]): 83.2%

B6: ADC4-13 (antibody, human IgG1, kappa, V domains shown)
VH: B1 VH
VL: B1 VL
modifications: conjugator-linker-payload on cysteine thiols after TCEP reduction (DAR8), maleimide hydrolysed; residues not numbered; structure given only as a drawing
EC50 (nM), ADC direct killing, Capan-1 (Low), 3D (B7H3 [5]): 0.5 nM | EC50 (nM), ADC direct killing, NCI-H1650 (High), 3D (B7H3 [5]): 1.6 nM | Emax (%), ADC direct killing, Capan-1 (Low), 3D (B7H3 [5]): 58.5% | Emax (%), ADC direct killing, NCI-H1650 (High), 3D (B7H3 [5]): 79.3%

B7: ADC4-14 (antibody, human IgG1, kappa, V domains shown)
VH: B1 VH
VL: B1 VL
modifications: conjugator-linker-payload on cysteine thiols after TCEP reduction (DAR8), maleimide hydrolysed; residues not numbered; structure given only as a drawing
EC50 (nM), ADC direct killing, Capan-1 (Low), 3D (B7H3 [5]): 0.4 nM | EC50 (nM), ADC direct killing, NCI-H1650 (High), 3D (B7H3 [5]): 1.3 nM | Emax (%), ADC direct killing, Capan-1 (Low), 3D (B7H3 [5]): 61.3% | Emax (%), ADC direct killing, NCI-H1650 (High), 3D (B7H3 [5]): 81.6%

B8: ADC4-16 (antibody, human IgG1, kappa, V domains shown)
VH: B1 VH
VL: B1 VL
modifications: conjugator-linker-payload on cysteine thiols after TCEP reduction (DAR8), maleimide hydrolysed; residues not numbered; structure given only as a drawing
EC50 (nM), ADC direct killing, Capan-1 (Low), 3D (B7H3 [5]): 0.6 nM | EC50 (nM), ADC direct killing, NCI-H1650 (High), 3D (B7H3 [5]): 1.5 nM | Emax (%), ADC direct killing, Capan-1 (Low), 3D (B7H3 [5]): 62.2% | Emax (%), ADC direct killing, NCI-H1650 (High), 3D (B7H3 [5]): 76.4%

B9: ADC4-8 (antibody, human IgG1, kappa, V domains shown)
VH: B1 VH
VL: B1 VL
modifications: conjugator-linker-payload on cysteine thiols after TCEP reduction (DAR8), maleimide hydrolysed; residues not numbered; structure given only as a drawing
EC50 (nM), ADC direct killing, Capan-1 (Low), 3D (B7H3 [6]): 1 nM | EC50 (nM), ADC direct killing, NCI-H1650 (High), 3D (B7H3 [6]): 2.9 nM | Emax (%), ADC direct killing, Capan-1 (Low), 3D (B7H3 [6]): 66.6% | Emax (%), ADC direct killing, NCI-H1650 (High), 3D (B7H3 [6]): 79.5%
